Data reported in patent publication US20090232837A1.

Biological target: RTQKEASI peptide (mammalian)
Experiment: ELISA, peptide adsorbed to wells (10 mg/ml)

Negative control (ELISA of Table 3)
OD: 0.141 OD
